Reference: patent US20210269549A1, “ANTI-SAS1B ANTIBODIES, ASSOCIATED METHODS OF USE, AND COMPOSITIONS AND METHODS FOR DETECTING AND TREATING CANCER” (UNIVERSITY OF VIRGINIA PATENT FOUNDATION, priority 2015, published 2021)

Experiments:
[1] = biological target: T1, human SAS1B protein with a C-terminal V5 tag expressed by HEK293T cells (Homo sapiens, UniProt Q6HA08); test: Double immunofluorescence on fixed and permeabilized HEK293T cells transfected with SAS1B SV-A with V5 tag; type: cell-based
T1 construct: expressed in transfected cells; host or cells: HEK293T
T1 sequence (Q6HA08 24-431): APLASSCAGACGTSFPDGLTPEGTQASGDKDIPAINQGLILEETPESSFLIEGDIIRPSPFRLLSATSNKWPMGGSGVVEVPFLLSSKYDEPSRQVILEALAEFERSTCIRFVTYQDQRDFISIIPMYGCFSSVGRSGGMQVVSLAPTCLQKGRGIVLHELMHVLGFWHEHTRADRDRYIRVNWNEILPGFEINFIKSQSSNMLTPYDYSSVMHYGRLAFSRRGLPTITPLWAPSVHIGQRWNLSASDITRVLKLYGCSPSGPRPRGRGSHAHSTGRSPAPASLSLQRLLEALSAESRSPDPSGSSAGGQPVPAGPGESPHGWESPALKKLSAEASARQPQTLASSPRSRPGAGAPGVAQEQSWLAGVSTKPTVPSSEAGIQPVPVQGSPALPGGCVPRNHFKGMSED
Description: Experiments were conducted to determine the specificity of anti-human SAS1B monoclonal antibodies SB1, SB2, SB3, SB4, SB5, SB6 and SB7 against the human SAS1B protein with a C-terminal V5 tag expressed by HEK293T cells by double immuno-fluorescence from two different SAS1B epitopes. HEK293T cells were seeded at ˜100,000 per well of a 24 well plate containing a lysine-coated 12 mm coverslip. 24 hours later, the cells were transfected with 1 ug of SV-A plasmid with 2 ul of TURBOFECT® transfection reagent followed by no change of media. 48 h later the cells were PFA (paraformaldehyde) fixed and methanol permeabilized for an IF study as follows.
The cells were removed from cell culture media and fixed in 4% PFA in PBS, 300 ul for 15 min. The cells were washed in 1 ml PBS in wells for 3 times and permeabilized in methanol (100%) for 15 min in 0.5 ml at RT. The cells were washed in PBS 1 ml for 3 times and blocked in complete culture media (DMEM) with 5% normal goat serum (NGS) for 30 min (i.e. BB, blocking buffer). The first antibody in BB was added for 1 h at 10 ug/ml for mouse monoclonal antibodies (SB1, SB2, SB3, SB4, SB5, SB6, SB7) and 5 ug/ml for anti-V5 DYLIGHT® 488 (green) rabbit (a rabbit polyclonal antibody to V5 tag). The cells were washed in PBS 3 times. The second antibody in BB (Goat anti-mouse Alexa Flour 594, red) was added for 1 h at 5 ug/ml (1:200 dilution). The cells were washed in PBS 3 times. The cells were mounted in slow fade DAPI 3 ul and stored at 4° C. before confocal imaging.

[2] = test system: human uterine cancer cells; test: ADC assay on human uterine cancer cells using Fab-anti-mouse IgG Fc (Duocarmycin DM conjugated or unconjugated); type: cell-based; conditions: for Cytotoxic effect: 4 days
Description: The cytotoxic effect of anti-human SAS1B monoclonal antibodies SB1, SB3 and SB4 on human uterine cancer cells was investigated by ADC assay using Fab-anti-mouse IgG Fc conjugated to Duocarmycin DM with a cleavable linker. An average of 3 experiments were done in triplicate. […] At 0.01 nM the viability was only 40% compared to ˜80% viability for SB4 mAb.
The cytotoxic effect of anti-human SAS1B mAbs SB1, SB2, SB3, SB4 and SB5 on human uterine cancer cells by ADC assay using unconjugated Fab-anti-mouse IgG Fc was examined. An average of 1 or 2 experiments in triplicate were performed. […] See FIGS. 10A-B. The cytotoxic effect of anti-human SAS1B mAbs SB1, SB2, SB3, SB4, and SB5 was tested on human uterine cancer cells by ADC assay using Fab-anti-mouse IgG Fc conjugated to Duocarmycin DM with cleavable linker. An average of 3 experiments were completed in triplicate. […] At 0.01 nM the viability for SB3, SB2, SB4 and SB5 were 42%, 66%, 80% and 87% respectively.

human SAS1B = biological target: T2, human SAS1B (Homo sapiens, UniProt Q6HA08); test: Western blot of human SAS1B probed with anti-human SAS1B murine mAbs; type: binding
T2 construct: made in house; host or cells: E. coli
T2 sequence (Q6HA08 24-431): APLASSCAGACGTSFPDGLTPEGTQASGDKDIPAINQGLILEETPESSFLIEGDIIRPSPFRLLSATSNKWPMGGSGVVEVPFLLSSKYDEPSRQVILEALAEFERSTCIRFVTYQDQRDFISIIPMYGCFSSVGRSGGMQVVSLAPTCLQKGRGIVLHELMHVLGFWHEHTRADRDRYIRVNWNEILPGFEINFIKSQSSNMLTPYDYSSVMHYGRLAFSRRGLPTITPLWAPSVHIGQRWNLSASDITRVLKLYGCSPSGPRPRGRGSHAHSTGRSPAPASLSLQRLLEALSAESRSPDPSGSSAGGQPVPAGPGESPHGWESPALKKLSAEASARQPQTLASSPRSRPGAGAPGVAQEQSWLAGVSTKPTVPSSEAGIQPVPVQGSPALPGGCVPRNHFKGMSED
Excerpt: A western blot of human SAS1B and mouse SAS1B was probed with anti-human SAS1B murine monoclonal antibodies SB1, SB2, SB3, SB4, SB5, SB6, and SB7.

[3] = test system: MMMT539 (uterine cancer cell line); test: Live cell surface indirect immunofluorescence, MMMT539; type: cell-based, human; conditions: live cells on ice
Description: Anti-Human SAS1B mouse monoclonal antibodies reactive to SAS1B epitope on live cancer cell surfaces were identified by indirect immuno-fluorescence (IF) for the development of therapeutic antibodies. M1 (renal cancer cell line) and MMMT539 (uterine cancer cell line) cells were seeded at 20,000 cells in 1 ml per well on collagen coated coverslips in 24 well plates. The media was replaced 22 h post seeding. For antibody probing, cells were kept on ice for ˜8 to 18 min following 47 h post-seeding. The first antibody was added at 10 ug/ml, 20 ug/ml or 50 ug/ml in complete culture media with 15 mM NaN3 (pre-chilled), incubated on ice for 60 min, and the cells washed in complete culture media with 15 mM NaN3 in cold 1 ml, ×3. The second antibody, goat-antimouse-AF488 (pre-chilled), was added to the wells at 5 ug/ml in complete culture media with 15 mM NaN3 for 60 min on ice. The cells were washed in complete media with 15 mM NaN3, 1 ml, ×3 on ice. The cells were fixed in 4% PFA in PBS for 20 minutes on ice. The cells were washed in distilled water at RT, 1 ml, ×1 and mounted in 8 ul of SLOWFADE® Diamond Antifade Mountant with DAPI. An anti-EGFR monoclonal antibody was used as a positive control on live M1 cells. Epidermal growth factor receptor (EGFR) is a transmembrane glycoprotein and member of protein kinase superfamily. […] Most of the cells expressed the receptor and validated the live cell surface IF staining methodology for the screening of anti-human SAS1B mouse monoclonal antibodies. The receptor molecule was found on the cell surfaces. Anti-human CABYR monoclonal antibody 3A4 was used as a negative control on live MMMT539 cells. CABYR is a calcium binding cytoskeleton sperm protein with no transmembrane domain.

[4] = biological target: T3, full-length SAS1B splice variant A polypeptide (Homo sapiens, UniProt Q6HA08); test: Western blot with mammalian cell-expressed recombinant SAS1B, full length; type: binding
T3 construct: made in house
T3 sequence (Q6HA08 24-431): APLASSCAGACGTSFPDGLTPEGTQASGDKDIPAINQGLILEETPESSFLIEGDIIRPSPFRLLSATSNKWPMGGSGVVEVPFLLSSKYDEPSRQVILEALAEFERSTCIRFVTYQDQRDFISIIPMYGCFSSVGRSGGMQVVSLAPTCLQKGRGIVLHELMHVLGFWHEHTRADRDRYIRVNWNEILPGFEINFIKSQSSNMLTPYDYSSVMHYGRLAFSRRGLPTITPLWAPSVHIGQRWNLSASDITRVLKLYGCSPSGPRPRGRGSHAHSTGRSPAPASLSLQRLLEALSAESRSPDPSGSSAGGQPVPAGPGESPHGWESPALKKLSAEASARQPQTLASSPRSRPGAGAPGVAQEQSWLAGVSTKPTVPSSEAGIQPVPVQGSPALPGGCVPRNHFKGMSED
Description: SAS1B monoclonal antibodies were analyzed with mammalian cell-expressed recombinant SAS1B by western blotting.

- IF signal / colocalization with V5-tag epitope signal ([1]; SV-A transfected HEK293T, PFA fixed, methanol permeabilized, mAbs at 10 ug/ml): lack of a signal
- Signal on mock transfected HEK293T cells ([1]; mock transfected): no V5 signal or SAS1B signal
- Reactivity on western blot of human SAS1B and mouse SAS1B (human SAS1B): reacts with both human and mouse SAS1B
- Specificity in western blot for human SAS1B antigen in an E. coli protein background (human SAS1B): demonstrated specificity
B1: SB1: mouse anti-SAS1B monoclonal antibody, IgG2a; VH SEQ ID NO:12, VL SEQ ID NO:13 (antibody, listed as Mus musculus, V domains shown)
VH: EVQLQQSGPELVKPGSSVKISCKASGYTFTDYNMDWVKQSHGKSLEWIGAINPNNGGTSYNQKFKGKATLTVDKSSSTAYMELRSLTSEDSAVYYCATNEYWGQGTTLTVSS
VL: NIVMTQSPKSMSMSVGERVTLSCKASENVGTYVSWYQQKPEQSPKLLIYGASNRYTGVPDRFTGSGSATDFTLTISSVQAEDLADYHCGQSYSYPWTFGGGTKLEIK
- Cytotoxic effect ([2]; Fab-anti-mouse IgG Fc conjugated to Duocarmycin DM with cleavable linker): no cytotoxic effect
- Cytotoxic effect ([2]; isotype-specific unconjugated Fab): no cytotoxic effect
- Cell killing effects as antibody-duocarmycin conjugates on SAS1B+ human tumor cells (FIG. 28) ([2]; uterine tumor cells in vitro): no cytotoxic effects
- Fluorescence signal on the surface of live uterine tumor cells [3]: clear fluorescence signal
- Reaction with full-length SAS1B splice variant A polypeptide [4]: reacted with the full-length SAS1B splice variant A polypeptide
